Test results reported in patent US20190369104A1, “P27 TYROSINE PHOSPHORYLATION AS A MARKER OF CDK4 ACTIVITY AND METHODS OF USE THEREOF” (THE RESEARCH FOUNDATION FOR THE STATE UNIVERSITY OF NEW YORK, priority 2016, published 2019).

B1: GST-K2 (GST-tagged p27 PxxP peptide K2) (peptide)
chain: DVSGSRPAAPLIGAPA
notes: also called K2 site; not shown: N-terminal GST tag from the pGEX-KG expression vector
B2: Brk SH3 domain (displayed on phage) (other)
chain: KYVGLWDFKSRTDEELSFRAGDVFHVARKEEQWWWATLLDEAGGAVAQGYVPHNYLAER
notes: also called SH3 domain of Brk
B3: ALT: small peptide ALT, which contains a portion of Brk's SH3 domain; alternatively-spliced form of Brk (SEQ ID NO: 12) (protein)
chain: MVSRDQAHLGPKYVGLWDFKSRTDEELSFRAGDVFHVARKEEQWWWATLLDEAGGAVAQGYVPHNYLAERETVESEPAGHAGCAALQDLAACRGPAAPERGGVLPQPARACELPQGPEPVPRPAAGRALPEARA
modifications: Alt-Brk

How the values were obtained:
HCC1954 cells = assay: Palbociclib inhibitor treatment, viable cell count IC50; type: cell-based; conditions: Homo sapiens; HCC1954 cells (Rb+)
Method: (§1) Cells were seeded on six well plates in duplicate, 5.0×10^4 per well. 24 hours post seeding, one well for each plate was treated with trypsin and counted using the Biorad Automated cell counter. 48 hours post seeding, another well was treated with trypsin and counted and the rest of the wells were treated with Palbociclib (SelleckChem) at 50 nM, 100 nM, 200 nM and 400 nM. DMSO was used as a negative control. Cells were counted again 24 and 48 h post treatment. The IC50 values were determined by normalizing the number of viable cells treated with different concentrations of Palbociclib to the number of viable cells treated with DMSO for each cell line 48 hours post treatment. The number of viable cells treated with DMSO was considered 100%. The log of the viability values was obtained and the data was fitted to a nonlinear regression curve, which was used to generate the IC50 values using Graphpad Prism software.

MCF7 cells = assay: as above; type: cell-based; conditions: Homo sapiens
Method: as §1

MDA MB231 cells = assay: as above; type: cell-based; conditions: Homo sapiens, MDA-MB-231
Method: as §1

[1] = tested on: MCF7-Wt Brk expressing cells; assay: Palbociclib (PD) resistance of Brk-overexpressing cells, IC50; type: cell-based; conditions: Homo sapiens
Method: as §1
Generation of the WT-Brk, KM-Brk, and YF-Brk has been described (Palka-Hamblin H. L. et al., […] J. Cell Sc. 123: 236-45). Amphotropic retroviruses were generated by transfection using Lipofectamine 2000 (Life Technologies 11668-019) of HEK 293 cells with pAmpho envelope and pBabe or pTRE3G tetracycline inducible constructs. Following viral infection of MCF7 cells, stable integrants were isolated by puromycin selection. […]

p27 pY88 in MCF7 cells = assay: Dual pY/p27 IHC assay on cell blocks; type: cell-based; design: key to pY staining intensity: 0: no pY staining; 1: weak pY staining; 2: moderate pY staining; 3: strong pY staining; conditions: MCF7 cells treated with 400 nM Palbociclib, 48 h
Method: 1×10^12 cells were grown in tissue culture, spun down and fixed in 10% formalin, embedded in paraffin, and then analyzed in the dual pY/p27 IHC assay as described. MCF7 cells were treated with 400 nM Palbociclib for 48 h. before cell block preparation. […] On day 1, slides are labeled with a pencil and baked in an oven at 65° C. for 30 minutes and immediately transferred from the oven to a coplin jar containing Xylene. Slides are rinsed in Xylene 4× for 3 minutes each at room temperature followed by a graded alcohol wash at 100%-95%-75% ethanol 3 times, 3 min each at R.T. Slides were then hydrated by incubation in H2O once for 3 min. After drying, a hydrophobic barrier was created around the tissue using a PAP pen. Endogenous peroxide was blocked by incubating the slides with Peroxide block for 30 min at room temp. The slides were washed with TBS-0.1% Tween 20 3 times for 3 minutes each followed by incubation in 1×PBS for 3 min. After an incubation with a with protein block for 1 h at R.T, P27 [MUT] antibody diluted 1:200 in the DAKO antibody diluent was added to the slides for an overnight incubation at 4° C. On day 2, a 1× solution of antigen retrieval was prepared from 10× stock and it was equilibrated at 100° C. in the water bath. […]

[2] = biological target: B2; assay: phage-ELISA on immobilised GST-K2
Description: (§2) (FIG. 1A) p27 sequence highlighting the proline tracts of the three putative SH3 domain recruitment sites (PxxP): K1 (90-96), K2 (114-117) and K3 (188-195) (SEQ ID NO: 1). Phage-ELISA-analysis of SFK SH3 interactions with p27 (FIG. 1B) or p27's PxxP motifs (FIG. 1C). Data shown is the mean of three independent experiments±standard deviation after normalization and subtraction of the background binding to GST.
(§3) Phage supernatants were generated and binding of SH3-phages to recombinantly produced His-tagged-p27 or GST-PxxP-peptides were analyzed as described (Asbach B. et al., (2012) PLoS One 6: e38540).

[3] = biological target: T1, Abl SH3 domain (displayed on phage) (UniProt P00519 61-121, limits assumed); assay: phage-ELISA on immobilised GST-K2
T1 construct: domain: SH3
Description: as §2, §3

[4] = biological target: T2, Yes SH3 domain (displayed on phage) (UniProt P07947 91-152, limits assumed); assay: phage-ELISA on immobilised GST-K2
T2 construct: domain: SH3
Description: as §2, §3

[5] = biological target: T3, recombinantly produced His-tagged p27 (full-length p27) (human, UniProt P46527 1-198); assay: phage-ELISA, SH3 phage on immobilised His-p27 (multivalent phage)
T3 construct: also called p27Kip1; His-p27; not shown: C-terminal histidine tag
Method: as §3

[6] = tested on: ER/PR+, Her2− breast cancer cell lines; assay: ALT (alone or with Palbociclib) in breast cancer cell lines; type: cell-based
Description: To block pY in breast cancer cell lines, we used a small peptide ALT, which contains a portion of Brk's SH3 domain. ALT binds to p27, blocks Brk's association and ability to phosphorylate p27, inhibiting cdk4 and increasing p27's ability to inhibit cdk2. We generated Tetracycline inducible cell lines that expressed ALT and/or engineered a lipid-based nanoparticle delivery vehicle (NP-ALT), permitting us to test ALT as a first generation therapeutic. ALT was also used with Palbociclib to determine if combination therapy reduced drug resistance. pY inhibition comes with a built in biomarker for efficacy and the identification of responsive cell lines and/or future patients. We developed a dual IHC assay for p27 and pY, which we used to analyze both a breast cancer cell line panel previously stratified for Palbociclib sensitivity as well as paraffin-embedded, archival human tumor samples.

[7] = ER/PR+, Her2− breast cancer cell lines

T1 sequence (P00519 61-121 limits assumed): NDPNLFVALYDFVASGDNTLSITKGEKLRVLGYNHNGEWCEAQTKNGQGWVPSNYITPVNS
T2 sequence (P07947 91-152 limits assumed): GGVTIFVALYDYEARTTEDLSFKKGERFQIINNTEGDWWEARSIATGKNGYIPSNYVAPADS
T3 sequence (P46527 whole entry): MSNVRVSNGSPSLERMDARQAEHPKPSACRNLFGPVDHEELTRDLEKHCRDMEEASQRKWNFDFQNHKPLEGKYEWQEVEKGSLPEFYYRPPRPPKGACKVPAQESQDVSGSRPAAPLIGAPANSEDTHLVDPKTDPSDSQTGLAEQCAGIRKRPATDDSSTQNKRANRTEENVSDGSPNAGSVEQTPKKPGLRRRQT

CC(=O)c1c(C)c2cnc(Nc3ccc(N4CCNCC4)cn3)nc2n(C2CCCC2)c1=O [Palbociclib]
IC50 (HCC1954 cells): 1000 nM | IC50 (MCF7 cells): 200 nM | IC50 (MDA MB231 cells): 400 nM | IC50 [1]: ~600 nM | pY staining, % of cells stained (p27 pY88 in MCF7 cells): 0% | pY staining intensity (p27 pY88 in MCF7 cells; scale 0-3): 0

B1
binding result [2]: no binding | binding result [3]: no binding | binding result [4]: no binding

B2
Kd [5]: 250 nM

B3
cdk2 activity [6, 7]: blocked | cdk4 activity [6, 7]: blocked | pY [6, 7]: blocked | proliferation [6, 7]: blocked | duration of arrest ([6]; breast cancer cell lines): > 10 days
